Biological target: T1, EphA2 (UniProt P29317 25-534, limits assumed)
T1 construct: also called EphA2 receptor
Assay: biolayer interferometry (ForteBio Octet)

T1 sequence (P29317 25-534 limits assumed): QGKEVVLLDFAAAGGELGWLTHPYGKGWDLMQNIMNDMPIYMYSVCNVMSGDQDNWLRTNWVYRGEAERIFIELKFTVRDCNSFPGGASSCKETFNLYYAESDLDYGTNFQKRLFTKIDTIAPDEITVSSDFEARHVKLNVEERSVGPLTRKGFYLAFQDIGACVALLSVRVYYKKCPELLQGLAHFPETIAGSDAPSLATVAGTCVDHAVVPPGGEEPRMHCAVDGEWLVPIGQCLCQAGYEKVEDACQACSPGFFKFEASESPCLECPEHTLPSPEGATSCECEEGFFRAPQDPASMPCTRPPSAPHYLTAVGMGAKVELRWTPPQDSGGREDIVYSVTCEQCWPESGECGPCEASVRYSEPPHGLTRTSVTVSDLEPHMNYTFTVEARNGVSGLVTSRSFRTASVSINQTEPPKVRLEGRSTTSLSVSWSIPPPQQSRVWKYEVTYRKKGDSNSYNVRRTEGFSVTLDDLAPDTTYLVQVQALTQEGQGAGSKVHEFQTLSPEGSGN

B1: SNEW (peptide)
peptide: SNEWIQPRLPQH
notes: Known EphB2 targeting peptide, tested alongside the xEFN peptides as a comparator
binding result: no binding
